Legend:
[1] = background statement, no test described; cited from earlier work
[2] = Kinetic testing of oxidation and reduction reactions on various substrates using 2ADH-16; assay type: biochemical; details: 0.04 mg/mL enzyme, 0.25 mg/mL cofactor, 20 mM Tris HCl pH 6.5(red) or 9.0(ox), 25 C; FIG. 35, 36
Description: Similar to above, kinetic testing for both oxidation and reduction reactions was performed on various substrates using 2ADH-16. The conditions for these studies were as follows: 0.04 mg/mL enzyme, 0.25 mg/mL cofactor, 20 mM Tris HCl Buffer pH 6.5(red) or 9.0(ox), T=25 C, 100 uL total volume was used.

[3] = In vitro pyruvate formation from alginate with purified enzymes; details: ~5 ug purified enzyme with Atu3025, UxuA, KdgK, KdgA; 1% alginate or ~0.5% mannuronate; over night; FIG. 6B, 6C
Description: The reaction mixture contained 1% alginate or ˜0.5% mannuronate, ˜5 ug of purified Atu3026 (ADH12) or Atu3027 (ADH11), and ˜5 ug of purified oligoalginate lyase (Atu3025), UxuA, KdgK, and KdgA, 2 mM of ATP, and 0.6 mM of NADPH in 20 mM Tris-HCl pH7.0. The reaction was carried out over night and the pyruvate formation was monitored by the pyruvate assay kit (BioVision, Inc).

[4] = TBA assay of culture media for secreted alginate lyase; details: media of overnight BL21 culture, LB+2% alginate+0.1 mM IPTG; 1:1 with 0.8% TBA, 10 min at 99 degrees Celsius; FIG. 47

B1: BAL: benzaldehyde lyase (BAL) from Pseudomoas fluorescens, ThDP-dependent C—C ligase, SEQ ID NOS: 143-144 (protein, listed as Pseudomonas fluorescens)
chain: MAMITGGELVVRTLIKAGVEHLFGLHGAHIDTIFQACLDHDVPIIDTRHEAAAGHAAEGYARAGAKLGVAGHGGRGIYQCGHAHCQRLAGSQGRCIPHPGSGALRDDETNTLQAGIDQVAMAAPITKWAHRVMATEHIPRLVMQAIRAALSAPRGPVLLDLPWDILMNQIDEDSVIIPDLVLSAHGARPDPADLDQALALLRKAERPVIVLGSEASRTARKTALSAFVAATGVPVFADYEGLSMLSGLPDAMRGGLVQNLYSFAKADAAPDLVLMLGARFGLNTGHGSGQLIPHSAQVIQVDPDACELGRLQGIALGIVADVGGTIEALAQATAQDAAWPDRGDWCAKVTDLAQERYASIAAKSSSEHALHPFHASQVIAKHVDAGVTVVADGALTYLWLSEVMSRVKPGGFLCHGYLGSMGVGFGTALGAQVADLEAGRRTILVTGDGSVGYSIGEFDTLVRKQLPLIVIIMNNQSWGATLHFQQLAVGPNRVTGTRLENGSYHGVAAAFGADGYHVDSVESFSAALAQALAHNRPACINVAVALDPIPPEELILIGMDPFA
[1]
  rate of benzoin formation from two benzaldehyde molecules: 320 μmol (benzoin) mg (protein)^−1 min^−1

B2: 2ADH-16: secondary alcohol dehydrogenase isolated from Klebsiella pneumoniae subsp. pneumoniae MGH 78578, SEQ ID NO: 138 (protein)
chain: MTAFHNKSVLVLGGSRGIGAAIVRRFVADGASVVFSYSGSPEAAERLAAETGSTAVQADSADRDAVISLVRDSGPLDVLVVNAGIALFGDALEQDSDAIDRLFHINIHAPYHASVEAARRMPEGGRIIVIGSVNGDRMPLPGMAAYALSKSALQGLARGLARDFGPRGITVNVVQPGPIDTDANPENGPMKELMHSFMAIKRHGRPEEVAGMVAWLAGPEASFVTGAMHTIDGAFGA
modifications: Klebsiella pneumoniae subsp. pneumoniae MGH78578
[2]
  oxidation and reduction of various substrates: capable of catalyzing both the oxidation and reduction of a wide variety of substrates

B3: Atu3027: alcohol dehydrogenase isolated from Agrobacterium tumefaciens C58, polypeptide SEQ ID NO: 90 (protein)
chain: MRSELPEGFFGPREWARLNAVADIIPGFPHTDFDTANGAEALAEADILLAAWGTPSLTRERLSRAPRLKMLAYAASSVRMVAPAEFWETSDILVTTAASAMAVPVAEFTYAAIIMCGKDVFRLRDEHRTERGTGVFGSRRGRSLPYLGNHARKVGIVGASRIGRLVMEMLARGTFEIAVYDPFLSAEEAASLGAKKAELDELLAWSDVVSLHAPILPETHHMIGARELALMADHAIFINTARGWLVDHDALLTEAISGRLRILIDTPEPEPLPTDSPFYDLPNVVLTPHIAGALGNELRALSDLAITEIERFVAGLAPLHPVHKQDMERMA
modifications: Agrobacterium tumefaciens C58
[3]
  DEHU hydrogenase and mannuronate hydrogenase reactions in pyruvate formation from alginate: capable of catalyzing both DEHU hydrogenase and mannuronate hydrogenase reactions

B4: Vs24259: putative Vibrio splendidus protein similar to an alginate lyase, SEQ ID NO: 34; negative control in TBA assay (protein, listed as Vibrio splendidus)
chain: MKQITLKTLLASSILLAVGCASTSTPTADFPNNKETGEALLTPVAVSASSHDGNGPDRLVDQDLTTRWSSAGDGEWATLDYGSVQEFDAVQASFSKGNQRQSKFDIQVSVDGESWTTVLENQLSSGKAIGLERFQFEPVVQARYVRYVGHGNTKNGWNSVTGLAAVNCSINACPASHIITSDVVAAEAVIIAEMKAAEKARKDARKDLRSGNFGVAAVYPCETTVECDTRSALPVPTGLPATPVAGNSPSENFDMTHWYLSQPFDHDKNGKPDDVSEWNLANGYQHPEIFYTADDGGLVFKAYVKGVRTSKNTKYARTELREMMRRGDQSISTKGVNKNNWVFSSAPESDLESAAGIDGVLEATLKIDHATTTGNANEVGRFIIGQIHDQNDEPIRLYYRKLPNQETGAVYFAHESQDATKEDFYPLVGDMTAEVGDDGIALGEVFSYRIDVKGNTMTVTLIREGKDDVVQVVDMSNSGYDAGGKYMYFKAGVYNQNISGDLDDYSQATFYQLDVSHDQYKK
[4]
  TBA assay result (cleavage of alginate polymer in growth medium): little or no cleavage of the alginate polymer has occurred

B5: Vs24254: putative Vibrio splendidus protein similar to an alginate lyase, SEQ ID NO: 32; functional external alginate lyase (protein, listed as Vibrio splendidus)
chain: MNKPIFVVVLASLTYGCGGSSSSDSSDPSDTNNSGASYGVVAPYDIAKYQNILSSSDLQVSDPNGEEGNKTSEVKDGNFDGYVSDYFYADEETENLIFKMANYKMRSEVREGENFDINEAGVRRSLHAEISLPDIEHVMASSPADHDEVTVLQIHNKGTDESGTGYIPHPLLRVVWEQERDGLTGHYWAVMKNNAIDCSSAADSSDCYATSYNRYDLGEADLDNFTKFDLSVYENTLSIKVNDEVKVDEDITYWQHLLSYFKAGIYNQFENGEATAHFQALRYTTTQVNGSNDWDINDWKLTIPASKDTWYGSGGDSAAELEPERCESSKDLLANDSDVYDSDIGLSYFNTDEGRVHFRADMGYGTSTENSSYIRSELRELYQSSVQPDCSTSDEDTSWYLDDTRTNATSHELTASLRIEDYPNINNQDPKVVLGQIHGWKINQALVKLLWEGESKPVRVILNSDFERNNQDCNHCDPFSVELGTYSASEEWRYTIRANQDGIYLATHDLDGTNTVSHLIPWGQDYTDKDGDTVSLTSDWTSTDIAFYFKAGIYPQFKPDSDYAGEVFDVSFSSLRAEHN
[4]
  TBA assay result (cleavage of alginate polymer in growth medium): positive TBA assay result of pink color

From patent publication US8318473B2, “Biofuel production” (Bio Architecture Lab, Inc., priority 2007, dated 2012)
